Laboratory results from US20110318339A1.
Each block holds one binder with its values, some of them ahead of it.

Columns and labels:
[1] = target: rHuman ErbB2/Fc Chimera, CF (Cat# 1129-ER, R&D Systems) (human) (UniProt P04626); assay: Multispot ECL; Fab 3.8 nM; blank 198
[2] = target: rHuman EGF R/Fc Chimera, CF (Cat# 344-ER, R&D Systems) (human) (UniProt P00533); assay: Multispot ECL; Fab 3.8 nM; blank 198
[3] = target: rHuman HGF R/c-MET/Fc Chimera, CF (Cat# 358-MT/CF, R&D Systems) (human) (UniProt P08581); assay: Multispot ECL; Fab 3.8 nM; blank 198
[4] = target: rHuman IGF-1 sR, (IGF-1 sR), CF (Cat# 391-GR, R&D Systems) (human) (UniProt P08069); assay: Multispot ECL; Fab 3.8 nM; blank 198
[5] = target: rHuman ErbB2/Fc Chimera, CF (Cat# 1129-ER, R&D Systems) (human) (UniProt P04626); assay: Multispot ECL; Fab 7.5 nM; blank 217
[6] = target: rHuman EGF R/Fc Chimera, CF (Cat# 344-ER, R&D Systems) (human) (UniProt P00533); assay: Multispot ECL; Fab 7.5 nM; blank 217
[7] = target: rHuman HGF R/c-MET/Fc Chimera, CF (Cat# 358-MT/CF, R&D Systems) (human) (UniProt P08581); assay: Multispot ECL; Fab 7.5 nM; blank 217
[8] = target: rHuman IGF-1 sR, (IGF-1 sR), CF (Cat# 391-GR, R&D Systems) (human) (UniProt P08069); assay: Multispot ECL; Fab 7.5 nM; blank 217
[9] = target: rHuman ErbB2/Fc Chimera, CF (Cat# 1129-ER, R&D Systems) (human) (UniProt P04626); assay: Multispot ECL; Fab 120 nM; blank 363
[10] = target: rHuman EGF R/Fc Chimera, CF (Cat# 344-ER, R&D Systems) (human) (UniProt P00533); assay: Multispot ECL; Fab 120 nM; blank 363
[11] = target: rHuman HGF R/c-MET/Fc Chimera, CF (Cat# 358-MT/CF, R&D Systems) (human) (UniProt P08581); assay: Multispot ECL; Fab 120 nM; blank 363
[12] = target: rHuman IGF-1 sR, (IGF-1 sR), CF (Cat# 391-GR, R&D Systems) (human) (UniProt P08069); assay: Multispot ECL; Fab 120 nM; blank 363
[13] = target: rHuman ErbB2/Fc Chimera, CF (Cat# 1129-ER, R&D Systems) (human) (UniProt P04626); assay: Multispot ECL; Fab 240 nM; blank 316
[14] = target: rHuman EGF R/Fc Chimera, CF (Cat# 344-ER, R&D Systems) (human) (UniProt P00533); assay: Multispot ECL; Fab 240 nM; blank 316
[15] = target: rHuman HGF R/c-MET/Fc Chimera, CF (Cat# 358-MT/CF, R&D Systems) (human) (UniProt P08581); assay: Multispot ECL; Fab 240 nM; blank 316
[16] = target: rHuman IGF-1 sR, (IGF-1 sR), CF (Cat# 391-GR, R&D Systems) (human) (UniProt P08069); assay: Multispot ECL; Fab 240 nM; blank 316
[17] = target: rHuman ErbB2/Fc Chimera, CF (Cat# 1129-ER, R&D Systems) (human) (UniProt P04626); assay: Multispot ECL; Fab 60 nM; blank 237
[18] = target: rHuman EGF R/Fc Chimera, CF (Cat# 344-ER, R&D Systems) (human) (UniProt P00533); assay: Multispot ECL; Fab 60 nM; blank 237
[19] = target: rHuman HGF R/c-MET/Fc Chimera, CF (Cat# 358-MT/CF, R&D Systems) (human) (UniProt P08581); assay: Multispot ECL; Fab 60 nM; blank 237
[20] = target: rHuman IGF-1 sR, (IGF-1 sR), CF (Cat# 391-GR, R&D Systems) (human) (UniProt P08069); assay: Multispot ECL; Fab 60 nM; blank 237
[21] = target: rHuman ErbB2/Fc Chimera, CF (Cat# 1129-ER, R&D Systems) (human) (UniProt P04626); assay: Multispot ECL; Fab 15 nM; blank 261
[22] = target: rHuman EGF R/Fc Chimera, CF (Cat# 344-ER, R&D Systems) (human) (UniProt P00533); assay: Multispot ECL; Fab 15 nM; blank 261
[23] = target: rHuman HGF R/c-MET/Fc Chimera, CF (Cat# 358-MT/CF, R&D Systems) (human) (UniProt P08581); assay: Multispot ECL; Fab 15 nM; blank 261
[24] = target: rHuman IGF-1 sR, (IGF-1 sR), CF (Cat# 391-GR, R&D Systems) (human) (UniProt P08069); assay: Multispot ECL; Fab 15 nM; blank 261
[25] = target: rHuman ErbB2/Fc Chimera, CF (Cat# 1129-ER, R&D Systems) (human) (UniProt P04626); assay: Multispot ECL; Fab 30 nM; blank 213
[26] = target: rHuman EGF R/Fc Chimera, CF (Cat# 344-ER, R&D Systems) (human) (UniProt P00533); assay: Multispot ECL; Fab 30 nM; blank 213
[27] = target: rHuman HGF R/c-MET/Fc Chimera, CF (Cat# 358-MT/CF, R&D Systems) (human) (UniProt P08581); assay: Multispot ECL; Fab 30 nM; blank 213
[28] = target: rHuman IGF-1 sR, (IGF-1 sR), CF (Cat# 391-GR, R&D Systems) (human) (UniProt P08069); assay: Multispot ECL; Fab 30 nM; blank 213
[29] = target: rHuman ErbB2/Fc Chimera, CF (Cat# 1129-ER, R&D Systems) (human) (UniProt P04626); assay: Multispot ECL; Fab 480 nM; blank 362
[30] = target: rHuman EGF R/Fc Chimera, CF (Cat# 344-ER, R&D Systems) (human) (UniProt P00533); assay: Multispot ECL; Fab 480 nM; blank 362
[31] = target: rHuman HGF R/c-MET/Fc Chimera, CF (Cat# 358-MT/CF, R&D Systems) (human) (UniProt P08581); assay: Multispot ECL; Fab 480 nM; blank 362
[32] = target: rHuman IGF-1 sR, (IGF-1 sR), CF (Cat# 391-GR, R&D Systems) (human) (UniProt P08069); assay: Multispot ECL; Fab 480 nM; blank 362
[33] = target: rHuman ErbB2/Fc Chimera, CF (Cat# 1129-ER, R&D Systems) (human) (UniProt P04626); assay: Multispot ECL; Fab 17 nM; blank 143
[34] = target: rHuman EGF R/Fc Chimera, CF (Cat# 344-ER, R&D Systems) (human) (UniProt P00533); assay: Multispot ECL; Fab 17 nM; blank 143
[35] = target: rHuman HGF R/c-MET/Fc Chimera, CF (Cat# 358-MT/CF, R&D Systems) (human) (UniProt P08581); assay: Multispot ECL; Fab 17 nM; blank 143
[36] = target: rHuman IGF-1 sR, (IGF-1 sR), CF (Cat# 391-GR, R&D Systems) (human) (UniProt P08069); assay: Multispot ECL; Fab 17 nM; blank 143
[37] = target: rHuman ErbB2/Fc Chimera, CF (Cat# 1129-ER, R&D Systems) (human) (UniProt P04626); assay: Multispot ECL; Fab 51 nM; blank 335
[38] = target: rHuman EGF R/Fc Chimera, CF (Cat# 344-ER, R&D Systems) (human) (UniProt P00533); assay: Multispot ECL; Fab 51 nM; blank 335
[39] = target: rHuman HGF R/c-MET/Fc Chimera, CF (Cat# 358-MT/CF, R&D Systems) (human) (UniProt P08581); assay: Multispot ECL; Fab 51 nM; blank 335
[40] = target: rHuman IGF-1 sR, (IGF-1 sR), CF (Cat# 391-GR, R&D Systems) (human) (UniProt P08069); assay: Multispot ECL; Fab 51 nM; blank 335
[41] = target: rHuman ErbB2/Fc Chimera, CF (Cat# 1129-ER, R&D Systems) (human) (UniProt P04626); assay: Multispot ECL; Fab 6 nM; blank 191
[42] = target: rHuman EGF R/Fc Chimera, CF (Cat# 344-ER, R&D Systems) (human) (UniProt P00533); assay: Multispot ECL; Fab 6 nM; blank 191
[43] = target: rHuman HGF R/c-MET/Fc Chimera, CF (Cat# 358-MT/CF, R&D Systems) (human) (UniProt P08581); assay: Multispot ECL; Fab 6 nM; blank 191
[44] = target: rHuman IGF-1 sR, (IGF-1 sR), CF (Cat# 391-GR, R&D Systems) (human) (UniProt P08069); assay: Multispot ECL; Fab 6 nM; blank 191
[45] = target: rHuman ErbB2/Fc Chimera, CF (Cat# 1129-ER, R&D Systems) (human) (UniProt P04626); assay: Multispot ECL; Fab 154 nM; blank 447
[46] = target: rHuman EGF R/Fc Chimera, CF (Cat# 344-ER, R&D Systems) (human) (UniProt P00533); assay: Multispot ECL; Fab 154 nM; blank 447
[47] = target: rHuman HGF R/c-MET/Fc Chimera, CF (Cat# 358-MT/CF, R&D Systems) (human) (UniProt P08581); assay: Multispot ECL; Fab 154 nM; blank 447
[48] = target: rHuman IGF-1 sR, (IGF-1 sR), CF (Cat# 391-GR, R&D Systems) (human) (UniProt P08069); assay: Multispot ECL; Fab 154 nM; blank 447

- ECL signal [1]: 714
- ECL signal [2]: 511
- ECL signal [3]: 519
- ECL signal [4]: 463
- ECL signal [5]: 695
- ECL signal [6]: 582
- ECL signal [7]: 558
- ECL signal [8]: 642
- ECL signal [9]: 822
- ECL signal [10]: 658
- ECL signal [11]: 785
- ECL signal [12]: 813
- ECL signal [13]: 833
- ECL signal [14]: 690
- ECL signal [15]: 834
- ECL signal [16]: 625
- ECL signal [17]: 777
- ECL signal [18]: 679
- ECL signal [19]: 623
- ECL signal [20]: 654
- ECL signal [21]: 713
- ECL signal [22]: 584
- ECL signal [23]: 694
- ECL signal [24]: 705
- ECL signal [25]: 726
- ECL signal [26]: 585
- ECL signal [27]: 640
- ECL signal [28]: 697
- ECL signal [29]: 965
- ECL signal [30]: 877
- ECL signal [31]: 951
- ECL signal [32]: 741
B1: Fab VH6-1_IGHD3-3*01_IGHJ4*01 & V4-3_IGLJ4*01 (Fab, V domains shown)
VH: QVQLQQSGPGLVKPSQTLSLTCAISGDSVSSNSAAWNWIRQSPSRGLEWLGRTYYRSKWYNDYAVSVKSRITINPDTSKNQFSLQLNSVTPEDTAVYYCAREYYDFWSGYYTDYFDYWGQGTLVTVSS
VL: QPVLTQPTSLSASPGASARLTCTLRSGINLGSYRIFWYQQKPESPPRYLLSYYSDSSKHQGSGVPSRFSGSKDASSNAGILVISGLQSEDEADYYCMIWHSSASFVFGGGTQLIIL

- ECL signal [33]: 1030
- ECL signal [34]: 805
- ECL signal [35]: 914
- ECL signal [36]: 872
- ECL signal [37]: 1250
- ECL signal [38]: 816
- ECL signal [39]: 1040
- ECL signal [40]: 1050
- ECL signal [41]: 873
- ECL signal [42]: 742
- ECL signal [43]: 831
- ECL signal [44]: 854
- ECL signal [45]: 1590
- ECL signal [46]: 1400
- ECL signal [47]: 1520
- ECL signal [48]: 1400
B2: Fab VH5-51_IGHD5-18*01>3_IGHJ4*01 & V3-4_IGLJ1*01 (Fab, V domains shown)
VH: EVQLVQSGAEVKKPGESLKISCKGSGYSFTSYWIGWVRQMPGKGLEWMGIIYPGDSDTRYSPSFQGQVTISADKSISTAYLQWSSLKASDTAMYYCARRGYSYGYDYFDYWGQGTLVTVSS
VL: QTVVTQEPSFSVSPGGTVTLTCGLSSGSVSTSYYPSWYQQTPGQAPRTLIYSTNTRSSGVPDRFSGSILGNKAALTITGAQADDESDYYCVLYMGSGISYVFGTGTKVTVL
